Experimental data: patent US7204989 (YANG SHENG TANG, dated 2007)

Target: the molecule itself
Assay: SDS-PAGE of thrombin-released pE2; self-association into a homodimer
Experimental: In addition, samples of the GE2 and pE2 peptides were heated at 100° C. for 3 minutes for subsequent analysis (Lanes 2 and 4) by SDS PAGE (A) and Western blotting (B and C). The molecular weight of these products were compared with markers (Lane 6)
The purified preparations of GE2 and pE2 were characterized by SDS PAGE and Western blotting techniques (FIG. 7). […] In addition, samples of the GE2 and pE2 peptides were heated at 100° C. for 3 minutes for subsequent analysis (Lanes 2 and 4) by SDS PAGE (A) and Western blotting (B and C).

B1: pE2 peptide, monomeric form (23 kD) (other)
chain: QLFYSRPVVSANGEPTVKLYTSVENAQQDKGIAIPHDIDLGESRVVIQDYDNQHEQDRPTPSPAPSRPFSVLRANDVLWLSLTAAEYDQSTYGSSTGPVYVSDSVTLVNVATGAQAVARSLDWTKVTLDGRPLSTIQQYSKTFFVLPLRGKLSFWEAGTTKAGYPYNYNTTASDQLLVENAAGHRVAISTYTTSLGAGPVSISAVAVLAPPPR
notes: Monomer obtained by dissociating the dimer; Also used for the self-association rows; also called pE2 monomer; heated pE2
**Q.** Does B1 bind?
**A.** Result: binds
